Data on 7 substances can be found in US20140248303A1.

Assay [1] has as its target 37/67 laminin receptor (LR) (Homo sapiens (Human)) (UniProt P08865). The assay is described as follows: cell-based or functional assay.
The target is the same in assay [2]. The assay is described as follows: adhesion of construct-labeled latex microspheres to fixed TNF-activated RBCEC6 cells.
Assay [3] has as its target native CbpA of S. pneumoniae Tigr4 / T4R (on bacteria or in pneumococcal lysate) (Streptococcus pneumoniae Tigr4 strain). The experiment in a line: cell-based or functional assay.
Assay [4] concerns the target 37/67 laminin receptor (LR) (Homo sapiens (Human)) (UniProt P08865). The assay is described as follows: adhesion of labeled latex microspheres to RBCEC6 cells.
The target in assay [5] is full length CbpA (CbpA-NR12) (Streptococcus pneumoniae Tigr4 strain). The experiment in a line: competitive inhibition of rCbpA-coated latex beads binding to activated RBCEC6 cells by the LR peptide.

With “CbpA P393G (as printed) expressed on a CbpA- S. pneumoniae strain”, the adherence to endothelial cells of a CbpA- strain expressing the mutant, less than wild type CbpA in assay [1] is 39 % less. CbpA-R1 showed a bead adherence to RBCEC6 cells, % (compared with full length CbpA-NR12 beads) in assay [2] of 10%.

As for “LMWWML palindromic sequence within the 161-180 laminin-binding domain (peptide)”, the bacterial adhesion to activated RBCEC6 cells, % of control in assay [3] is 108 % of control. As to full length CbpA (CbpA-NR12), the fold binding over control thioredoxin labeled beads in assay [4] was determined as 20 fold. As to “native CbpA of S. pneumoniae Tigr4 / T4R (on bacteria or in pneumococcal lysate)”, in assay [1], the pneumococcal (T4R) adherence to activated RBCEC6 cells, inhibited by anti-LRP r711 turned out to be 54%; the pneumococcal (T4R) adherence to activated RBCEC6 cells, inhibited by laminin came to 47%; the pneumococcal (T4R) invasion of activated RBCEC6 cells, inhibited by anti-LRP r711 is 31%; the pneumococcal (T4R) invasion of activated RBCEC6 cells, inhibited by laminin came out at 36%. Regarding “peptide corresponding to amino acids 161-180 of the laminin receptor”, the adhesion of rCbpA-coated latex beads, % of control in assay [5] was 93 % of control. On to “peptide corresponding to amino acids 263-282 of the laminin receptor”, for which the adherence of rCbpA-coated latex beads, % of control in assay [5] was 38 % of control.
